Experiment: soluble on expression in E. coli; label from the status in PepcDB or PDB records

Row | Sequence | soluble on expression in E. coli
1 | MSLDTMWFRNIDNFINEINRFALLGTVTNKNGWLINNGIYYAGRLGKLHSTPTKGQQVVTDAMRIYPYLGEQYFVAAEQITTNYGGIDANGKTVNLDQIREEGKKKYLPKTYTFDDGAIVFKAGDKVSEEKIKRLYWAAKEVRSQFYRTVGSDKPLEKWTCEGHHHHHH | not soluble
2 | MAHHHHHHMGTLEAQTQGPGSMKQPTAVIFDWYNTLIDTSINIDRTTFYQVLDQMGYKNIDLDSIPNSTIPKYLITLLGKRWKEATILYENSLEKSQKSDNFMLNDGAIELLDTLKENNITMAIVSNKNGERLRSEIHHKNLTHYFDSIIGSGDTGTIKPSPEPVLAALTNINIEPSKEVFFIGDSISDIQSAIEAGCLPIKYGSTNIIKDILSFKNFYDIRNFICQLINI | soluble
3 | QVQLQQSGPGLVKPSQTLSLTCAISGDSVSSNSAAWNWIRQSPSRGLEWLGRTYYRSKWFNDYAVSVQSRITINPDTSKNQFSLQLNSVTPEDTAVYYCARGIVFSYAMDVWGQGTTVTVSSASTKGPSVFPLAPSSKSTSGGTAALGCLVKDYFPEPVTVSWNSGALTSGVHTFPAVLQSSGLYSLSSVVTVPSSSLGTQTYICNVNHKPSNTKVDKKVEPKSCAADEVDHHHHHH | soluble
4 | MSDLTKLDWNHIRAFLKTAETGSLSAAARRLDLTQPTLSRQVAALEQDLGVMLFERIGRTLVLTDAGADLLEHTRAMGAAADRVALAASGQAQSIEGRVRITASDVMSAYVLPEALRRIRAQAPRLEIEVIAANDIRDLMRREADIAIRHVRPEQPDLIARLVREATAHFYAASGYLDRRGRPVTKDDLATHDFIAFGDVTEMLGHLTPLGLPLTRANFRLGSQSGVVAWDYVRQGFGIAPMDDGVAAATPGVERVLPQMEPLLFPVWLTAHRELHTSRRIRLVFDILAEYLTG | not soluble
5 | IKGSTDMDHSGFIQKFIALYGGLNKHTLHHLSEIYSYDVQFIDAVHEINGIDELTDYFTHLYTNLIECKFTIHHVIEDINLTQGEATLFWTMNYKHPKIGKGKSISVEGVSHIKFNDKVFYHRDFLDMGQMVYEHLPLIGPMVKFIKKRVQA | soluble
6 | MNIDSDIFKIQSNNVLPSRGKILISEPFLRDATFGRSVVLLIDHTEEGSMGLIINKQLPIFVNDIIKEFKYIENIPLYKGGPIATDTLFYLHTLADIPGAIPISKGLYLNGDFDEIKKYILQGNKVDRYIRFFLGYSGWESEQLSTELKENTWLVSKEENAYLMNGDTKDMWKQALEKLGSKYETWSRFPQVPTFN | not soluble
7 | MQTDSLSPSPNPVSPVPLNNPTSAPRYGTVIPNRIFVGGIDFKTNESDLRKFFSQYGSVKEVKIVNDRAGVSKGYGFVTFETQEDAQKILQEAEKLNYKDKKLNIGPAIRKQQVGIPRSSIMPAAGTMYLTTSTGYPYTYHNGVAYFHTPEVTSVPPPWPSRSVCSSPVMVAQPIYQQPAYHYQATTQYLPGQWQWSVPQPSASSAPFLYLQPSEVIYQPVEIAQDGGCVPPPLSLMETSVPEPYSDHGVQATYHQVYAPSAITMPAPVMQPEPIKTVWSIHY | soluble
8 | AADITVASYNIHKGVGTDRRRDLRRTAAVIAELDADLVALQEADRRFGDRAGLLDLEHLKDETGLVPVKVEGRGRAHGWHGNLLLVRDAEVEEVQKIVLPSFEPRGALMIDMMIRGRPLRVIAAHLGLLPASRAAQTRHLLERIEASTPRPTLLMGDLNEWRGTGAAMGHLARHFTGGVMVRSFPSRFPILALDRLMTCKHGQLHDVSTHDTPLARRASDHLPIKARLHLP | not soluble
9 | MGSDKIHHHHHHYDLSDVNTDDAVMGESWVAPLGMGYVTSDDVVNVEKVPSIREVDGAYVMIYDGEMKIKGKSLRAASDKVEIASEDITTGDIDGLFDGDFVLALTNPHITLKSNVKNASLDCSLSIEAENTSKKEATSSDFTLSTVSPNIWIGPLDPKTDAFKFVKNEKLPGIVQIVPQKIHLSLSADSKQWTNAPADALSELRYAVELPLTPAPEFSAVSVERIEDAFDEDFVDYIFSDGSARIYGEVTNEMPFDMSIEMVIMDENNVPVDIQFPAQEVKGQSGEVIFEITKEDMPKMKDARHIDLNLHLTGRDQGEALKKGQKTTFNLKLKKEGGISI | not soluble
10 | ANFQYIITEKKGKNSSVGLIQLNRPKALNALCNGLIEELNQALETFEEDPAVGAIVLTGGEKAFAAGADIKEMQNRTFQDCYSGKFLSHWDHITRIKKPVIAAVNGYALGGGCELAMMCDIIYAGEKAQFGQPEILLGTIPGAGGTQRLTRAVGKSLAMEMVLTGDRISAQDAKQAGLVSKIFPVETLVEEAIQCAEKIANNSKIIVAMAKESVNAAFEMTLTEGNKLEKKLFYSTFATDDRREGMSAFVEKRKANFKDH | soluble
11 | MMNQLRVTRKEPVKIRIQRKTSQNHAKGIEEMEMAVAVGVKMGQDAVEGNWKRKIIPKKTAIREILKSDEEITVRHLKIGLKSRRLPSCLIRKEPKDNNVSYEETGEGEYFEEENRKNSNNANSSNSRNTGRGNKGGKERESLNDNESSNEETEGRRSVKKTNTLNEDNNGNSIRKESNLSNDEETDEVVDTHRINTEDDEEDEEKPPTEKGTPKRKDRKSDSRSTSKGFGSGGRGRAEYTEDGDDDESNRRSVNFEKDGNGRMVKTETERSSTHAQDYDKKGSKKKKHRVSENGSEEEEVSTSFSSSSSKSSSSSSLSRRTTWDGNNNNTNRRRRNRFD | not soluble
12 | MGSDKIHHHHHHMQKLASGEQLMKVNGDTVATQGQLAKLLPLQHIDPQSTDIIDHGAKPRRQLLDWLMFHVEPEFYFAWQYYSRALKQRNTLLKTRRNLSLADLEPWNKMLSDYGEILHSQRLSIVEQWNVYFQNDLSQLLPDLEIELEYSPGFHTEQGLMQDLLNQHQKDIERRYTEYGPHRADLRLKTPFGHADDVLSRGQKKLLIIALKLSQIAMLHASNKETVVLLDDLTAELDLTAQQRLIERLSQLGSQVFMTTLDHASVKKHLHDLSISYQLFSVESGQVSLAAS | not soluble
13 | KLKPYNSEKILKYAEEVKSLYEKQSEENQEAYLQSIAKLGYEIYIVDDQKNGKRIGNAFRKTSISDDTVHKVLQGETFNGVSTYPTRLFITGFFDNELINSVGVPVKHGDKQYALFIRPDIQNQFGEMR | not soluble
14 | MGSDKIHHHHHHMTAATQAKHTPDDLSVAPRDIRFDLTSAQKGHWLGGDPVGTAVFNALSLTFPDGERMFMDAVKAYRDRLSGKLLEDAKGFIAQEAIHSREHHHLNSLIDRERYPVAEIEETIRGRVKMARERGPMAMLISTIALEHFTAMMAEMHARHRNLFDTTDPEIEKLWRWHAVEETEHKAVAYDVFLEVTKDWSPLKRYMIRCRAMVFVTIMFTRNISRYAARLLEADGYTPKAALKAVKRFVWGDPGIFRRGWKTYFAWYRPGFHPWDQDDRPLVADWMAEFNAAAVRV | not soluble
15 | MSFNRISAAEAASLIKHGYNIGLSGFTPAGTAKAVTAELAKIAEAEHAKGNPFQVGIFTGASTGESCDGVMSRAKAIRYRAPYTTNSDFRKAVNNGEIAYNDIHLSQMAQEVRYGFMGKVNVAIIEACEVTPDGKIYLTAAGGISPTICRLADQIIVELNAAHSKSCMGLHDVYEPLDPPYRREIPIYKPSDRIGLPYIQVDPKKIVGVVETNWPDEARSFADADPLTDKIGQNVADFLAADMKRGIIPSTFLPLQSGVGNIANAVLGALGRDKTIPAFEMYTEVIQNSVIGLIREGRIKFGSACSLTVTNDCLEGIYNDMDFFRDKLVLRPSEISNNPEVVRRLGIISINTAIEVDLYGNVNSTHIGGTKMMNGIGGSGDFTRNAYISIFTCPSVAKEGKISAIVPMVSHLDHSEHSVNIIITEQGVADLRGKSPKERAQAIIENCAHPDYKQLLWDYLKLAGGRAQTPHAIQAALGMHAELAKSGDMKNTNWAEYARLEHHHHHH | not soluble
16 | MQVMASPPCTTEELSPPPGGSLVEYSGGSLRVPDNPVVAFIRGDGVGPEVVESALKVVDAAVKKVYGGSRRIVWWELLAGHLAREKCGELLPKATLEGIRLARVALKGPLETPVGTGYRSLNVAIRQALDLYANIRPVRYYGQPAPHKYADRVDMVIFRENTEDVYAGIEWPHDSPEAARIRRFLAEEFGISIREDAGIGVKPISRFATRRLMERALEWALRNGNTVVTIMHKGNIMKYTEGAFMRWAYEVALEKFREHVVTEQEVQEKYGGVRPEGKILVNDRIADNMLQQIITRPWDYQVIVAPNLNGDYISDAASALVGGIGMAAGMNMGDGIAVAEPVHGTAPKYAGKDLINPSAEILSASLLIGEFMGWREVKSIVEYAIRKAVQSKKVTQDLARHMPGVQPLRTSEYTETLIAYIDEADLNEVLAGKRG | soluble
17 | MGSDKIHHHHHHMRFPEFSGEWKKYFIRDIAEVTKGAGISKEQRSLFGTPCILYGELYTTYKSEVINDVQSKTDIDAKNLVRSKENDVIIPSSGETAIDISTARCVPYDDVLLGGDLNIIRLYQNDGRFLSYQLNGVRKLDIARVAQGSSVIHLYGESIKSLSVSLPALKEQQKIVSLLSLIDERIATQNKIIEEYKKLKNALAELFFAKSIEYTSIGEMCDVVMGQSPSSVAYNYTKNGLPLIQGNLDIFEGVTSPRMWTSDITKQCDIGDIILTVRAPVGDVAKSNMIACVGRGVCAIKVKESGCSEYVYQYLLYFKAKWGSIEQGSTFSAISRNDILNINIPVITKRLIVASHLLALFDSEISIEALNLNVYTKQKQYLLTKMFI | not soluble
18 | MKKGCKYGTHRVIEPAGVLPQPAKKISNDMEIFSNEILIDVIALNIDSASFTQIEEEAGHDVEKVKAKIKEIVAERGKMQNPVTGSGGMLIGTVEKIGDDLVGKTDLKVGDKIATLVSLSLTPLRIDEIINIKPEIDRVEIKGKAILFESGIYAVLPKDMPENLALAALDVAGAPAQVAKLVKPCQSVAILGSAGKSGMLCAYEAVKRVGPTGKVIGVVRNDKEKALLQRVSDKVKIVIADATKPMDVLHAVLEANDAKEVDVAINCVNVPNTEMSTILPVKEFGIAYFFSMATGFSKAALGAEGVGKDITMIVGNGYTVDHAAITLEELRESAVLREIFNEIYLLEHHHHHH | soluble
19 | MRYKKTLMLSIMITSFNSFAFNDNYSSTSTVYATSNEATDSRGSEHLRYPYLECIKIGMSRDYLENCVKVSFPTSQDMFYDAYPSTESDGAKTRTKEDFSARLLAGDYDSLQKLYIDFYLAQTTFDWEIPTRDQIETLVNYANEGKLSTALNQEYITGRFLTKENGRYDIVNVGGVPDNTPVKLPAIVSKRGLMGTTSVVNAIPNEIYPHIKVYEGTLSRLKPGGAMIAVLEYDVSELSKHGYTNLWDVQFKVLVGVPHAETGVIYDPVYEETVKPYQPSGNLTGKKLYNVSTNDMHNGYKWSNTMFSNSNYKTQILLTKGDGSGVKLYSKAYSENFK | not soluble
20 | MFVDRIVLSFRGAGLERANTCLRKGQRLRKACSHVFRPLCSSDLPVNLPTDLETKRVMKPPLAERESIWSYPRPPRVEPNTRHLRVVHNQVTIAETRRGYRVLEYSHPPSYYIPLDDIDLQYVMVSSKVRSTFCEFKGEATYYDVEVGWEVSEGAAWSYDFPTRAYRMLKDHIAFYPAKVDACWVDEYRVRPEPRSFYGGWVTPLVKGVYPEEDVEDDEDSSGGDGKDSATQ | soluble

— the DeepSol protein solubility set
